Assay results from paper PMC7913109.

Target: Gluc2-VP3 BTV8 (pSPICA-N2-VP3 BTV8)
Experiment: split reporter (BiFC, NanoBiT)

Molecule | NLR (normalized luminescence ratio)
Gluc1-MAVS (pSPICA-N1 human MAVS) (from UniProt Q7Z434 1-540) (natural protein) | 17.4
Gluc1-IKKε (pSPICA-N1 human IKKε) (natural protein) MQSTANYLWHTDDLLGQGATASVYKARNKKSGELVAVKVFNTTSYLRPREVQVREFEVLRKLNHQNIVKLFAVEETGGSRQKVLVMEYCSSGSLLSVLESPENAFGLPEDEFLVVLRCVVAGMNHLRENGIVHRDIKPGNIMRLVGEEGQSIYKLTDFGAARELDDDEKFVSVYGTEEYLHPDMYERAVLRKPQQKAFGVTVDLWSIGVTLYHAATGSLPFIPFGGPRRNKEIMYRITTEKPAGAIAGAQRRENGPLEWSYTLPITCQLSLGLQSQLVPILANILEVEQAKCWGFDQFFAETSDILQRVVVHVFSLSQAVLHHIYIHAHNTIAIFQEAVHKQTSVAPRHQEYLFEGHLCVLEPSVSAQHIAHTTASSPLTLFSTAIPKGLAFRDPALDVPKFVPKVDLQADYNTAKGVLGAGYQALRLARALLDGQELMFRGLHWVMEVLQATCRRTLEVARTSLLYLSSSLGTERFSSVAGTPEIQELKAAAELRSRLRTLAEVLSRCSQNITETQESLSSLNRELVKSRDQVHEDRSIQQIQCCLDKMNFIYKQFKKSRMRPGLGYNEEQIHKLDKVNFSHLAKRLLQVFQEECVQKYQASLVTHGKRMRVVHETRNHLRLVGCSVAACNTEAQGVQESLSKLLEELSHQLLQDRAKGAQASPPPIAPYPSPTRKDLLLHMQELCEGMKLLASDLLDNNRIIERLNRVPAPPDV | 17.7
